In paper PMC10394140:

Molecular target: Re-PAX5 P80R (Homo sapiens, UniProt Q02548 1-391, P80R)
Test: EMSA

Re-PAX5 P80R, sequence (Q02548 whole entry P80R): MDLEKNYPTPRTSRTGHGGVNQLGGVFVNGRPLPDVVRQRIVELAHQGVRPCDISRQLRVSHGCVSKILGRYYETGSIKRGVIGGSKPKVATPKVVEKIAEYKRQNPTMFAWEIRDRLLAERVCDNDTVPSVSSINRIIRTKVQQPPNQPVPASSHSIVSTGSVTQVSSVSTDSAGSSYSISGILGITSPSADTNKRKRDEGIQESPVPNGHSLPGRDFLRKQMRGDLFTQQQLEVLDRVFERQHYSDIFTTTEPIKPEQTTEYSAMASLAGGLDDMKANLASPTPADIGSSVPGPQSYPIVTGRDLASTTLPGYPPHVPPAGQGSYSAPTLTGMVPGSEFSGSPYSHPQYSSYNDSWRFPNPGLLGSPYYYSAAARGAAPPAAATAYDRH

B1: Probe-1 (GINS1 promoter site1) (dsDNA)
DNA 1: GGTGCGGTGGCTCACGCTGTAATTCC
DNA 2: GGAATTACAGCGTGAGCCACCGCACC
Does B1 bind?
Result: no binding
